# Positions count from the first letter of the chain named.
# T1: cyno FcγRIa (cynomolgus monkey, UniProt P12314 16-288 (human entry))
# T1 construct: also called cyFcyRIa; cynomolgus monkey Fc gamma receptor Ia; not shown: C-terminal His-tag
# T1 chain: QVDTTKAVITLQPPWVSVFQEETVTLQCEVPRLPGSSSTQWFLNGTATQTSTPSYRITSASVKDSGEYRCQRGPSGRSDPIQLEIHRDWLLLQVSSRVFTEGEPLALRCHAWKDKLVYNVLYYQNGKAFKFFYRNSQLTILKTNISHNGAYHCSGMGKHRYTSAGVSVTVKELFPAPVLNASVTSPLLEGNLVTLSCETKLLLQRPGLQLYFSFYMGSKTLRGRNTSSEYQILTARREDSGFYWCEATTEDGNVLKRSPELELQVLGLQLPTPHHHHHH
# T2: cyno FcγRIIa3 (cynomolgus monkey)
# T2 construct: not shown: C-terminal His-tag
# T2 chain: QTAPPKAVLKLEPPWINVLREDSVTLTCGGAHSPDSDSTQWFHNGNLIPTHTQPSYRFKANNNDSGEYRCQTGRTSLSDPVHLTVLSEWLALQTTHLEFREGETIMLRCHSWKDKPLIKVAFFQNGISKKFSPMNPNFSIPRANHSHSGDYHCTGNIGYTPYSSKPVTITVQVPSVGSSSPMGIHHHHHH
# T3: cyno FcγRIIb (cynomolgus monkey)
# T3 construct: also called cyFcyRIIb; not shown: C-terminal His-tag
# T3 chain: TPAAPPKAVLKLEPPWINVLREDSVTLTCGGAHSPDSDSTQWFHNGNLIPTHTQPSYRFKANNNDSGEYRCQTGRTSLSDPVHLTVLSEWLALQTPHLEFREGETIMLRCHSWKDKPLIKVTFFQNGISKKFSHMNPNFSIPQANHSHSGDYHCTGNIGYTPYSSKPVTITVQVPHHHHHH
# T4: cyno FcγRIIIa(S) (cynomolgus monkey, UniProt Q8SPW2 21-206 at identity 1.00))
# T4 construct: also called cyFcyRIIIa(S); not shown: C-terminal His-tag
# T4 chain: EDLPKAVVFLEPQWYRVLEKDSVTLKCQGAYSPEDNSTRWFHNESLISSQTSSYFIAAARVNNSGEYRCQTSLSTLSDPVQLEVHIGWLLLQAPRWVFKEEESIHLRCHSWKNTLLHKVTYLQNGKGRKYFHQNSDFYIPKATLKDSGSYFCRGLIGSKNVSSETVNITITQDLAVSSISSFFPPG
# T5: cyno FcγRIIa1 (cynomolgus monkey)
# T5 construct: also called cyFcyRIIa1; not shown: C-terminal His-tag
# T5 chain: T2 chain with T95P, A121T, S128A, P133H, N135D
# T6: cyno FcγRIIa2 (cynomolgus monkey)
# T6 construct: also called cyFcyRIIa2; not shown: C-terminal His-tag
# T6 chain: T2 chain with I127K, K130N, P133H, R142Q
# B1: COS0098pHv1-SG1077R (antibody)
# heavy: QVQLVQSGAEVKKPGSSVKVSCKASGHTFSKYTVSWIRQPPGKGLEWIGIINTGGSAYPATWAKGRVTITADESTSTAYMELSSLRSEDTAVYYCARGAGDTDYTNLWGQGTLVTVSSASTKGPSVFPLAPSSKSTSGGTAALGCLVKDYFPEPVTVSWNSGALTSGVHTFPAVLQSSGLYSLSSVVTVPSSSLGTQTYICNVNHKPSNTKVDKRVEPKSCDKTHTCPPCPAPELWNGPSVFLFPPKPKDTLMISRTPEVTCVVVDVSDEDPEVKFNWYVDGVEVHNAKTKPREELYNSTYRVVSVLTVLHRDWLNGKEYKCKVSNTALPKPIEKTISKAKGQRREPQVYTLPPSREEMTKNQVSLTCLVKGFYPSDIAVEWESNGQPENNYKTTPPVLDSDGSFFLYSKLTVDKSRWQQGNVFSCSVLHEALHAHTTRKELSLSP
# light: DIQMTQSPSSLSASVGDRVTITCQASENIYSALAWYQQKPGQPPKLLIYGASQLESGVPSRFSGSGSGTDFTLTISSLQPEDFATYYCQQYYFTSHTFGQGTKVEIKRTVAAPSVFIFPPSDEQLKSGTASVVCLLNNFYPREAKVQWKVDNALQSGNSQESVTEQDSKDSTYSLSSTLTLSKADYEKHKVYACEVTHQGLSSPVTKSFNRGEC
# notes: also called COS009pHv1-SG1077R; COS009BpHv1-SG1077R
# Legend:
# cyno FcγRIa = target: T1, cyno FcγRIa; assay: SPR (Biacore T200), antibody captured on Protein L, FcγRIa at 8 nM, pH7.4, 25 C
# Method: (§1) Analysis of interaction between antibody and the FcγR prepared as mentioned above was carried out using BIACORE (registered trademark) T200 (GE Healthcare). 150 mMN Sodium chloride and 0.05 w/v % Tween-20 containing 50 mM phosphate buffer (pH7.4) was used as running buffer, and the measurement temperature was set to 25 degrees C. Chip produced by immobilizing Protein L (BioVision) by the amine coupling method to a Series S sensor Chip CM4 (GE Healthcare) was used. After capturing 500 or 1000 resonance unit (RU) of antibodies of interest onto the chip, FcγRs diluted with the running buffer were allowed to interact, and their binding amounts to antibodies were measured. Cyno FcγRIa was diluted to 8 nM, and others were diluted to 1000 nM. Then, antibodies captured onto the chip were washed by 10 mM Glycine-HC, pH1.5, and the chip was regenerated and used repeatedly. The binding amounts of FcγRs were divided by the binding amount of each antibody captured to obtain binding activity using biacore evaluation software, and these values were compared. Furthermore, the relative values of binding activity of COS0098pHv1-SG1077R to each FcγR to COS0098pHv1-SG1 (an antibody having the sequence of a naturally-occurring human IgG1 at positions 234 to 239, 265 to 271, 295, 296, 298, 300, and 324 to 337, according to EU numbering) were calculated.
# cyno FcγRIIa3 = target: T2, cyno FcγRIIa3; assay: SPR (Biacore T200), antibody captured on Protein L, FcγR at 1000 nM, pH7.4, 25 C
# Method: as §1
# cyno FcγRIIb = target: T3, cyno FcγRIIb; assay: as above
# Method: as §1
# cyno FcγRIIIa(S) = target: T4, cyno FcγRIIIa(S); assay: as above
# Method: as §1
# cyno FcγRIIIa(R) = target: T7, cyno FcγRIIIa(R) (cynomolgus monkey, UniProt Q8SPW2 17-208); assay: as above
# T7 construct: also called cyFcyRIIIa(R); not shown: C-terminal His-tag
# Method: as §1
# cyno FcγRIIa1 = target: T5, cyno FcγRIIa1; assay: as above
# Method: as §1
# cyno FcγRIIa2 = target: T6, cyno FcγRIIa2; assay: as above
# Method: as §1
# [1] = target: T8, cyno FcRn complexed with β2-microglobulin (cynomolgus monkey, UniProt Q8SPV9 24-290; Q8SPW0 21-119); assay: SPR (Biacore T200), antibody captured on Protein L, cyno FcRn 0-240 nM as analyte, steady-state analysis, pH6.0, 25 C
# T8 construct: also called cynomolgous monkey neonatal Fc receptor
# Method: Analysis of interaction between each antibody and the FcRn prepared as mentioned above was carried out using BIACORE (registered trademark) T200 (GE Healthcare). Buffer solution containing 150 mM sodium chloride, 0.05 w/v % Tween-20, 50 mM phosphate buffer (pH6.0) was used as running buffer, and the measurement temperature was set to 25 degrees C. Series S sensor Chip CM4 (GE Healthcare) onto which Protein L (BioVision) had been immobilized by the amine coupling method was used. After capturing 400 resonance unit (RU) of antibodies of interest onto the chip via the Protein L, FcRn diluted with the running buffer was allowed to interact, then the KD values were calculated. COS0098pHv1-SG1 was evaluated with 0, 250, 500, 1000, 2000, 4000 nM cyno FcRn, and COS0098pHv1-SG1077R was evaluated with 0, 15, 30, 60, 120, 240 nM cyno FcRn. Then, the chip capturing each antibody was washed by 10 mM Glycine-HCl, pH1.5, regenerated and used repeatedly. The equilibrium dissociation constant (KD (M)) for cyno FcRn was calculated for each antibody based on the steady-state analysis. The Biacore T200 Evaluation Software (GE Healthcare) was used to calculate each parameter.
# T7 sequence (Q8SPW2 other isoform, or with tags, fused parts or gaps): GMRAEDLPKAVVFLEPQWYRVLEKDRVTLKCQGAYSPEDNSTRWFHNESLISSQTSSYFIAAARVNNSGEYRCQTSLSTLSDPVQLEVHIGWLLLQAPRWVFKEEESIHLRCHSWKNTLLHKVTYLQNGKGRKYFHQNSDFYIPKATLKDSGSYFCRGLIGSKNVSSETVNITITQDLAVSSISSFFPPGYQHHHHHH
# T8 sequence (Q8SPV9 24-290 limits assumed, chain 1 of 2): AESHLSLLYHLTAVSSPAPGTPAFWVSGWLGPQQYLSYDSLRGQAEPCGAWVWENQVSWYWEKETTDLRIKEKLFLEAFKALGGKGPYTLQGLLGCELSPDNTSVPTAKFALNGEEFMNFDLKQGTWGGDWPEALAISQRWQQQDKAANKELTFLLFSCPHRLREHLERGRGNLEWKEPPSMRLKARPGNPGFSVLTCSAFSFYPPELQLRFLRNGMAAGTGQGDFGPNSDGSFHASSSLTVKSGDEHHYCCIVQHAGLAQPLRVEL
# T8 sequence (Q8SPW0 21-119 limits assumed, chain 2 of 2): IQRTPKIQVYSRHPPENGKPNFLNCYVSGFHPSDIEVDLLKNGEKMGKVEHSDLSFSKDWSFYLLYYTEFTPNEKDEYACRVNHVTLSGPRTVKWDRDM
binder,measurement,setting,value
B1,Relative value of binding activity,cyno FcγRIa,"0.06 fold, relative to COS0098pHv1-SG1"
same,Binding activity value (Binding amount per 1 RU antibody),cyno FcγRIIa3,0.025 RU per 1 RU antibody
same,Relative value of binding activity,cyno FcγRIIa3,"3.96 fold, relative to COS0098pHv1-SG1"
same,Binding activity value (Binding amount per 1 RU antibody),cyno FcγRIIb,0.082 RU per 1 RU antibody
same,Relative value of binding activity,cyno FcγRIIb,"2.86 fold, relative to COS0098pHv1-SG1"
same,Binding activity value (Binding amount per 1 RU antibody),cyno FcγRIIIa(S),0.0084 RU per 1 RU antibody
same,Relative value of binding activity,cyno FcγRIIIa(S),"0.07 fold, relative to COS0098pHv1-SG1"
same,Binding activity value (Binding amount per 1 RU antibody),cyno FcγRIIIa(R),0.006 RU per 1 RU antibody
same,Relative value of binding activity,cyno FcγRIIIa(R),"0.05 fold, relative to COS0098pHv1-SG1"
same,Binding activity value (Binding amount per 1 RU antibody),cyno FcγRIIa1,0.0436 RU per 1 RU antibody
same,Relative value of binding activity,cyno FcγRIIa1,"2.23 fold, relative to COS0098pHv1-SG1"
same,Binding activity value (Binding amount per 1 RU antibody),cyno FcγRIIa2,0.0425 RU per 1 RU antibody
same,Relative value of binding activity,cyno FcγRIIa2,"2.51 fold, relative to COS0098pHv1-SG1"
same,Kd,[1],0.07 µM

# Reference: US20230002481A1 (Chugai, published 2023)
